Three proteins from patent publication US20240209039A1 (RIKEN, published 2024) can be followed below.

Data set [1] concerns the molecule itself. Nature of the data set: pseudo-native PAGE, self-association (homodimer), FIG. 17.
Data set [2] deals with the molecule itself. The experiment in a line: pseudo-native PAGE (10% acrylamide, 0.1% SDS, no heat treatment), self-association. Here is the method:
After purification of the proteins with use of Ni-NTA, pseudo-native PAGE was carried out. The separation gel contained 10% acrylamide and 0.1% SDS. The sample buffer contained 2% SDS and 100 mM DTT. No heat treatment was carried out.

B1: StayGold (CU17S/V168A mutant) (other)
chain: MASTPFKFQLKGTINGKSFTVEGEGEGNSHEGSHKGKYVCTSGKLPMSWAALGTSFGYGMKYYTKYPSGLKNWFHEVMPEGFTYDRHIQYKGDGSIHAKHQHFMKNGTYHNIVEFTGQDFKENSPVLTGDMNVSLPNEVQHIPRDDGVECPVTLLYPLLSDKSKCVEAHQNTICKPLHNQPAPDVPYHWIRKQYTQSKDDTEERDHICQSETLEAHL
notes: Made in E. coli JM109 (DE3) and purified on Ni-NTA; also called StayGold (dimer); not shown: N-terminal histidine tag from the pRSETB vector (purified on Ni-NTA)
For B1, in data set [1], the binding result is “binds”.

B2: StayGold L155T (other)
chain: MASTPFKFQLKGTINGKSFTVEGEGEGNSHEGSHKGKYVCTSGKLPMSWAALGTSFGYGMKYYTKYPSGLKNWFHEVMPEGFTYDRHIQYKGDGSIHAKHQHFMKNGTYHNIVEFTGQDFKENSPVLTGDMNVSLPNEVQHIPRDDGVECPVTLTYPLLSDKSKCVEAHQNTICKPLHNQPAPDVPYHWIRKQYTQSKDDTEERDHICQSETLEAHL
notes: not shown: histidine tag implied by Ni-NTA purification
B2: in data set [2], the binding result was “no binding”.

B3: StayGold Y187A (other)
chain: MASTPFKFQLKGTINGKSFTVEGEGEGNSHEGSHKGKYVCTSGKLPMSWAALGTSFGYGMKYYTKYPSGLKNWFHEVMPEGFTYDRHIQYKGDGSIHAKHQHFMKNGTYHNIVEFTGQDFKENSPVLTGDMNVSLPNEVQHIPRDDGVECPVTLLYPLLSDKSKCVEAHQNTICKPLHNQPAPDVPAHWIRKQYTQSKDDTEERDHICQSETLEAHL
notes: as for B2
Turning to B3, the binding result in data set [2] is given as “no binding”.
